These results are taken from patent publication US20160120951A1 (ZEALAND PHARMA A S, published 2016).

Holding throughout (assay): cell-based or functional assay
Assay [1] deals with human glucagon-like peptide 1 receptor (GLP-1R) (human, UniProt P43220 24-463).
The target of assay [2] is T1, human glucagon receptor (Glucagon-R) (human, UniProt P47871 26-477).
The target of assay [3] is T1, human glucagon receptor (Glucagon-R). The source holds these as a separate data set.

Numbered stars: 1 amine (or outer) side, 2 acyl side, 3 side chain; on linkers, the order of the positions; unused ones are H or OH. Bridge positions count the residues as written; N and C are the ends. Square brackets hold non-standard residues; d marks the D form. Side chains are listed from the residue outwards. Ends that are not written are not given here. * marks the point of attachment. γGlu = O=C(O)[C@H](CCC(=O)[*:2])N[*:1]; Palmitoyl = CCCCCCCCCCCCCCCC(=O)*; Aib = CC(C)(N)C(=O)O

human glucagon-like peptide 1 receptor (GLP-1R), sequence (P43220 24-463): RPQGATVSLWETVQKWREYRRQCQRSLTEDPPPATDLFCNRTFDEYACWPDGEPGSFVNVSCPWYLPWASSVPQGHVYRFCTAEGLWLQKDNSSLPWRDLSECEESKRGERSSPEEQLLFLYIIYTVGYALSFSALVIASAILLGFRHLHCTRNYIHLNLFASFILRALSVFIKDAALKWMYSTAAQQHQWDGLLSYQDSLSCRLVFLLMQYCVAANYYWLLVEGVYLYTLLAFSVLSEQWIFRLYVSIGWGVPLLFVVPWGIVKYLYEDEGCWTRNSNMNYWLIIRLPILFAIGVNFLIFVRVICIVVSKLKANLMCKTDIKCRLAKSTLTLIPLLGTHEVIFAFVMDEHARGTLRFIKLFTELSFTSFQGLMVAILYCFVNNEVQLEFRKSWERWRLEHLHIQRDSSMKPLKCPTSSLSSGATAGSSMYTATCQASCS

B1: Compound 11 (peptide)
peptide: H-H[Aib]QGTFTSDYSKYLDSK([γGlu-Palmitoyl])AAHDFVEWLLRA-NH2
SMILES: CCCCCCCCCCCCCCCC(=O)N[C@@H](CCC(=O)NCCCC[C@H](NC(=O)[C@H](CO)NC(=O)[C@H](CC(=O)O)NC(=O)[C@H](CC(C)C)NC(=O)[C@H](Cc1ccc(O)cc1)NC(=O)[C@H](CCCCN)NC(=O)[C@H](CO)NC(=O)[C@H](Cc1ccc(O)cc1)NC(=O)[C@H](CC(=O)O)NC(=O)[C@H](CO)NC(=O)[C@@H](NC(=O)[C@H](Cc1ccccc1)NC(=O)[C@@H](NC(=O)CNC(=O)[C@H](CCC(N)=O)NC(=O)C(C)(C)NC(=O)[C@@H](N)Cc1c[nH]cn1)[C@@H](C)O)[C@@H](C)O)C(=O)N[C@@H](C)C(=O)N[C@@H](C)C(=O)N[C@@H](Cc1c[nH]cn1)C(=O)N[C@@H](CC(=O)O)C(=O)N[C@@H](Cc1ccccc1)C(=O)N[C@H](C(=O)N[C@@H](CCC(=O)O)C(=O)N[C@@H](Cc1c[nH]c2ccccc12)C(=O)N[C@@H](CC(C)C)C(=O)N[C@@H](CC(C)C)C(=O)N[C@@H](CCCNC(=N)N)C(=O)N[C@@H](C)C(N)=O)C(C)C)C(=O)O
As for B1, the “EC50 (nM) GLP-1R, cAMP formation” value in assay [1] worked out at 0.09 nM. Also, in assay [2], the “EC50 (nM) GluR, cAMP formation” value amounted to 0.16 nM. Moreover, in assay [3], the “GluR EC50 (nM) (1), cAMP formation in primary human hepatocytes” value was found to be 32.9 nM; the “GluR EC50 (nM) (2), cAMP formation in primary human hepatocytes” value came to 25.5 nM; the “GluR EC50 (nM) (log avg), cAMP formation in primary human hepatocytes” value was determined as 28.9 nM.

B2: Compound 15 (peptide)
peptide: HXQGTFTSDYSKYLDSKAAHDFVEWLLSA
modifications: Aib at position 2; K(Hexadecanoyl-[3-Aminopropanoyl]) at position 17; C-terminal amide (NH2)
Consider B2, for which the “EC50 (nM) GLP-1R, cAMP formation” value in assay [1] was 0.23 nM. The “EC50 (nM) GluR, cAMP formation” value in assay [2] was determined as 1.87 nM.

B3: Compound 12 (peptide)
peptide: H-H[Aib]QGTFTSDYSKYLDSKAAHDFVEWLLK([γGlu-Palmitoyl])A-NH2
SMILES: CCCCCCCCCCCCCCCC(=O)N[C@@H](CCC(=O)NCCCC[C@H](NC(=O)[C@H](CC(C)C)NC(=O)[C@H](CC(C)C)NC(=O)[C@H](Cc1c[nH]c2ccccc12)NC(=O)[C@H](CCC(=O)O)NC(=O)[C@@H](NC(=O)[C@H](Cc1ccccc1)NC(=O)[C@H](CC(=O)O)NC(=O)[C@H](Cc1c[nH]cn1)NC(=O)[C@H](C)NC(=O)[C@H](C)NC(=O)[C@H](CCCCN)NC(=O)[C@H](CO)NC(=O)[C@H](CC(=O)O)NC(=O)[C@H](CC(C)C)NC(=O)[C@H](Cc1ccc(O)cc1)NC(=O)[C@H](CCCCN)NC(=O)[C@H](CO)NC(=O)[C@H](Cc1ccc(O)cc1)NC(=O)[C@H](CC(=O)O)NC(=O)[C@H](CO)NC(=O)[C@@H](NC(=O)[C@H](Cc1ccccc1)NC(=O)[C@@H](NC(=O)CNC(=O)[C@H](CCC(N)=O)NC(=O)C(C)(C)NC(=O)[C@@H](N)Cc1c[nH]cn1)[C@@H](C)O)[C@@H](C)O)C(C)C)C(=O)N[C@@H](C)C(N)=O)C(=O)O
B3: in assay [1], the “EC50 (nM) GLP-1R, cAMP formation” value turned out to be 0.27 nM. In addition, the “EC50 (nM) GluR, cAMP formation” value in assay [2] was determined as 0.27 nM.

Turning to H-HSQGTFTSDYSKYLDSKAAHDFVEWLLRA-NH2 [Compound 1], in assay [1], the “EC50 (nM) GLP-1R, cAMP formation” value was 0.06 nM. Besides, the “EC50 (nM) GluR, cAMP formation” value in assay [2] worked out at 0.06 nM. For the same molecule, in assay [3], the “GluR EC50 (nM) (1), cAMP formation in primary human hepatocytes” value amounted to 1.4 nM; the “GluR EC50 (nM) (2), cAMP formation in primary human hepatocytes” value was determined as 2.2 nM; the “GluR EC50 (nM) (log avg), cAMP formation in primary human hepatocytes” value was found to be 1.8 nM.

B4: Compound 3 (peptide)
peptide: H-HSQGTFTSDYSKYLDSK([γGlu-Palmitoyl])AAHDFVEWLLRA-NH2
SMILES: CCCCCCCCCCCCCCCC(=O)N[C@@H](CCC(=O)NCCCC[C@H](NC(=O)[C@H](CO)NC(=O)[C@H](CC(=O)O)NC(=O)[C@H](CC(C)C)NC(=O)[C@H](Cc1ccc(O)cc1)NC(=O)[C@H](CCCCN)NC(=O)[C@H](CO)NC(=O)[C@H](Cc1ccc(O)cc1)NC(=O)[C@H](CC(=O)O)NC(=O)[C@H](CO)NC(=O)[C@@H](NC(=O)[C@H](Cc1ccccc1)NC(=O)[C@@H](NC(=O)CNC(=O)[C@H](CCC(N)=O)NC(=O)[C@H](CO)NC(=O)[C@@H](N)Cc1c[nH]cn1)[C@@H](C)O)[C@@H](C)O)C(=O)N[C@@H](C)C(=O)N[C@@H](C)C(=O)N[C@@H](Cc1c[nH]cn1)C(=O)N[C@@H](CC(=O)O)C(=O)N[C@@H](Cc1ccccc1)C(=O)N[C@H](C(=O)N[C@@H](CCC(=O)O)C(=O)N[C@@H](Cc1c[nH]c2ccccc12)C(=O)N[C@@H](CC(C)C)C(=O)N[C@@H](CC(C)C)C(=O)N[C@@H](CCCNC(=N)N)C(=O)N[C@@H](C)C(N)=O)C(C)C)C(=O)O
As for B4, in assay [1], the “EC50 (nM) GLP-1R, cAMP formation” value was determined as 0.11 nM. In addition, in assay [2], the “EC50 (nM) GluR, cAMP formation” value was determined as 0.12 nM.

In the case of HXQGTFTSDYSKYLDSKAAHDFVEWLLSA (Aib at position 2; K(Dodecanoyl-γ-Glu) at position 17; C-terminal amide (NH2)) [Compound 14], in assay [1], the “EC50 (nM) GLP-1R, cAMP formation” value worked out at 0.14 nM. In assay [2], the “EC50 (nM) GluR, cAMP formation” value was found to be 0.78 nM.

B5: Compound 13 (peptide)
peptide: H[Aib]QGTFTSDYSKYLDSK([γGlu-Palmitoyl])AAHDFVEWLLKA-NH2
modifications: lactam 24-28; N-terminus assumed
SMILES: CCCCCCCCCCCCCCCC(=O)N[C@@H](CCC(=O)NCCCC[C@H](NC(=O)[C@H](CO)NC(=O)[C@H](CC(=O)O)NC(=O)[C@H](CC(C)C)NC(=O)[C@H](Cc1ccc(O)cc1)NC(=O)[C@H](CCCCN)NC(=O)[C@H](CO)NC(=O)[C@H](Cc1ccc(O)cc1)NC(=O)[C@H](CC(=O)O)NC(=O)[C@H](CO)NC(=O)[C@@H](NC(=O)[C@H](Cc1ccccc1)NC(=O)[C@@H](NC(=O)CNC(=O)[C@H](CCC(N)=O)NC(=O)C(C)(C)NC(=O)[C@@H](N)Cc1c[nH]cn1)[C@@H](C)O)[C@@H](C)O)C(=O)N[C@@H](C)C(=O)N[C@@H](C)C(=O)N[C@@H](Cc1c[nH]cn1)C(=O)N[C@@H](CC(=O)O)C(=O)N[C@@H](Cc1ccccc1)C(=O)N[C@H](C(=O)N[C@H]1CCC(=O)NCCCC[C@@H](C(=O)N[C@@H](C)C(N)=O)NC(=O)[C@H](CC(C)C)NC(=O)[C@H](CC(C)C)NC(=O)[C@H](Cc2c[nH]c3ccccc23)NC1=O)C(C)C)C(=O)O
Consider B5, for which the “EC50 (nM) GLP-1R, cAMP formation” value in assay [1] stood at 0.08 nM. Also, the “EC50 (nM) GluR, cAMP formation” value in assay [2] amounted to 0.26 nM.

B6: Compound 2 (peptide)
peptide: HSQGTFTSDYSKYLDK([γGlu-Palmitoyl])KAAHDFVEWLLRA-NH2
modifications: N-terminus assumed
SMILES: CCCCCCCCCCCCCCCC(=O)N[C@@H](CCC(=O)NCCCC[C@H](NC(=O)[C@H](CC(=O)O)NC(=O)[C@H](CC(C)C)NC(=O)[C@H](Cc1ccc(O)cc1)NC(=O)[C@H](CCCCN)NC(=O)[C@H](CO)NC(=O)[C@H](Cc1ccc(O)cc1)NC(=O)[C@H](CC(=O)O)NC(=O)[C@H](CO)NC(=O)[C@@H](NC(=O)[C@H](Cc1ccccc1)NC(=O)[C@@H](NC(=O)CNC(=O)[C@H](CCC(N)=O)NC(=O)[C@H](CO)NC(=O)[C@@H](N)Cc1c[nH]cn1)[C@@H](C)O)[C@@H](C)O)C(=O)N[C@@H](CCCCN)C(=O)N[C@@H](C)C(=O)N[C@@H](C)C(=O)N[C@@H](Cc1c[nH]cn1)C(=O)N[C@@H](CC(=O)O)C(=O)N[C@@H](Cc1ccccc1)C(=O)N[C@H](C(=O)N[C@@H](CCC(=O)O)C(=O)N[C@@H](Cc1c[nH]c2ccccc12)C(=O)N[C@@H](CC(C)C)C(=O)N[C@@H](CC(C)C)C(=O)N[C@@H](CCCNC(=N)N)C(=O)N[C@@H](C)C(N)=O)C(C)C)C(=O)O
Turning to B6, the “EC50 (nM) GLP-1R, cAMP formation” value in assay [1] was determined as 0.2 nM. The “EC50 (nM) GluR, cAMP formation” value in assay [2] stood at 0.13 nM.

B7: Compound 4 (peptide)
peptide: H-HSQGTFTSDYSKYLDSKAAK([γGlu-Palmitoyl])DFVEWLLRA-NH2
SMILES: CCCCCCCCCCCCCCCC(=O)N[C@@H](CCC(=O)NCCCC[C@H](NC(=O)[C@H](C)NC(=O)[C@H](C)NC(=O)[C@H](CCCCN)NC(=O)[C@H](CO)NC(=O)[C@H](CC(=O)O)NC(=O)[C@H](CC(C)C)NC(=O)[C@H](Cc1ccc(O)cc1)NC(=O)[C@H](CCCCN)NC(=O)[C@H](CO)NC(=O)[C@H](Cc1ccc(O)cc1)NC(=O)[C@H](CC(=O)O)NC(=O)[C@H](CO)NC(=O)[C@@H](NC(=O)[C@H](Cc1ccccc1)NC(=O)[C@@H](NC(=O)CNC(=O)[C@H](CCC(N)=O)NC(=O)[C@H](CO)NC(=O)[C@@H](N)Cc1c[nH]cn1)[C@@H](C)O)[C@@H](C)O)C(=O)N[C@@H](CC(=O)O)C(=O)N[C@@H](Cc1ccccc1)C(=O)N[C@H](C(=O)N[C@@H](CCC(=O)O)C(=O)N[C@@H](Cc1c[nH]c2ccccc12)C(=O)N[C@@H](CC(C)C)C(=O)N[C@@H](CC(C)C)C(=O)N[C@@H](CCCNC(=N)N)C(=O)N[C@@H](C)C(N)=O)C(C)C)C(=O)O
As for B7, in assay [1], the “EC50 (nM) GLP-1R, cAMP formation” value was 0.1 nM. Also, in assay [2], the “EC50 (nM) GluR, cAMP formation” value is 0.04 nM.

B8: Compound 16 (peptide)
peptide: HXQGTFTSDYSKYLDSKAAHDFVEWLLSA
modifications: Aib at position 2; K(Hexadecanoyl-[8-Aminooctanoyl]) at position 17; C-terminal amide (NH2)
For the molecule B8, the “EC50 (nM) GLP-1R, cAMP formation” value in assay [1] was found to be 0.24 nM. The “EC50 (nM) GluR, cAMP formation” value in assay [2] was found to be 0.46 nM.

Take HXQGTFTSDYSKYLDSKAAHDFVEWLLSA (Aib at position 2; K(Hexadecanoyl-ε-Lys) at position 17; C-terminal amide (NH2)) [Compound 17]: the “EC50 (nM) GLP-1R, cAMP formation” value in assay [1] was 0.09 nM. In addition, the “EC50 (nM) GluR, cAMP formation” value in assay [2] was determined as 0.39 nM.
